The nanobody polyreactivity screen of Harvey et al. (2022)

assay: yeast display, Sf9 membrane polyspecificity reagent, FACS + sequencing; frameworks hold sequencing errors
In short: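 Genes from sorted yeast were amplified by colony PCR, read by MiSeq 2 × 250 sequencing and filtered on CDR length. These cells carried a synthetic nanobody library in Saccharomyces cerevisiae BJ5465 and were sorted by FACS into low and high (top ~1%) gates on anti-HA and streptavidin fluorescence. Polyreactivity is labelled according to the gate of origin.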

Row | Sequence | polyreactivity (PSR sort gate)
1 | QVQLVESGGGLVQAGGSLRLSCAASGRIFLLNPMGWYRKAPGKERELVARISSGRTYYADSVKGRFTISRDNAKNTVYLQMNILKPEDTAVYYCNATVSSSKYRYFYVNPYDYWGQGTQVTVSS | low polyreactivity
2 | QDQLVESGGGLVQAGGSLRLICAASGSTFVQYVMGWYRPAPGKERELVAAITRSCGSTYYADSVKGRFTISRDNAKNTVYLQMNSMKPEDSAVYYCAAYALRIQYDYWGQGTQVTVSS | high polyreactivity
3 | QVQLVESGGGLVQAGGSLRLSCAASGRTFAAYAMGWYRQAPGKERELGAAISIGGSTNYADSVKGRFTISRDNAKNTVYLQMNSLKPEDSAVYYCAAPWYRGGTTESYYWGQGTQVTVSS | high polyreactivity
4 | QVQLVESGGGLVQAGGSLRLSCAASGRTFVFNAMGWYRQAPGKERELVAAITKNGGSTYYADSVKGRFTISRDNAKNPVYLQMNSLKPEDTAVYYCAGRRGYPFYYWGQGTQVTVSS | low polyreactivity
5 | QVQLVESGGGLVQAGGSLRLSCAASGGIFYFYAMGWSRQAPGKERELVAAISSNGGRTYYADSVKGRFTISRDNAKNTVYLQMNSLKPEDTAVYYCNAVSRVSDRHLATYDYWGQGTQVTVSS | high polyreactivity
6 | QVQLEESGGGLVQAGGSLRLSCAASGRTLDYYAMGWYRQAPGKERELVASITSGGSTNYADSVKGRFTISRDNAKNTVYLQMNSLKPEDTAVYYCAADSAFYRDVKSNYWGQGTQVTVSS | low polyreactivity
7 | QVQLVESGGGLVQAGGSLRLSCAAYGGIFPAYAMGWYRQAPGKERELVAAISSSGRTYYADSVKGRFTISRDNAKNTVYLQMNSVKPEDTAVYYCAAYGGYRGWVFGSYGSWGQGTQVTVSS | high polyreactivity
8 | QVQLVESGGGLVQAGGSLRLSCAASGSIFLINAMGWYRQAPGKERELVAAISRSGGRTYYADSVKGRFTISRDNAKNTVYLEMNSLKPEDTAVYYCAVPSIYYAVRAYDYWGQGTQVTVSS | high polyreactivity
9 | QVQLVESGGGLVQSGGILRLSCAASGSTSPIYAMGWYRQAPGTERELVAAINGVGSTNYADSVKGRFTISRDNAKTTVYFQMNSLKPADTAVYYCAADGTALHEYLGDYDYWGQGTQVTVSS | low polyreactivity
10 | QVQLVESGGGLVQAGGILRLSCAASGSIFDVYAMGWYRQAPGKERELVAAINRGGSTNYADSVKGRFTISRDNAKNTVYLQMNCLKPEDTAVYYCAADIVWYVYNGYYWIFDYWGQGTQVTVSS | high polyreactivity
11 | QFQLVESGGGLVQAGGSLRLSCAASGLIFGAYDMGWYRQAPGKERELVAAITYSGGRTHYADSVKGRFTISRDNAKNTVYLQMNSLKPDDTAVYYCAAGSSHHFDYEGGYWGKGTQVTVSS | low polyreactivity
12 | QVQLVESGGGLVQAGGSLRLRCAASGSTFVRYAMGWYREAAGKEMELVAAISSRGGSTYYADSVKGRFTISRDNAKNTVYLQMNSLKPEDTAVYYCNAAAFINFMLYDYWGQGTQVTVSS | high polyreactivity
13 | QVQLVESGGGLVQAGGSLRLSCAASGFTFRHNGMGWYIQAPGKERELVATITWSGGRTSYADSVKGRFTISRDNAKNTVYLQMNSLKPEDTAVYYCAARFFSYSQYAYNYWGQGTQVTVSS | high polyreactivity
14 | QVQHVESGGGLVQAGGSLRLSCAASGFTFVYYAMGWYRQAPGKERELVAAISRSGSRTYYADSVKGRFTISRDNAKKTVYLQMNSLKPEDTAVYYCAVAGYSPYLYRYGYWVQGTQVTVSS | high polyreactivity
15 | QVQLVESGLGLVQAGGSLRLSCAASGTTLLGYAMGWYRQAPGKERELVAAITGSGGRTSYADSVKGRFTISRDNAKNTVYLQMNSLKPEDTAVYYCAAARRYHFQRFNYWGQGTQVTVSS | high polyreactivity
16 | QVQLVESGGGLVQAGGSLRLICAASGGIFYVNAMGWYRQAPGKERELVADIRYSGTSTYYADSVKGRFTISRDNAKNTVYLQMNSLKPEDTAVYYCAVDAWDTTLVYEQGAERDSWGQGTQVTVSS | low polyreactivity
17 | QVQLVESGGGLVQAGGSLRLSCAASGSIITDYAMGWYRQAPGKERELVATITDSGGSTYYADSVKGRFTISRDNAKNTVYLQMNSLKPEDTAVYYCAADRIHSVTRYDYDYWGQGTQVTVSS | low polyreactivity
18 | QVQLVESGGGLVQAGGSLRLSCAASGSIFDFNAMGWYRQVPGKERELVAAITSGGSTNYADSVKGRFTISRDNAKNTVYLQMNSLKPEDTAVYYCAARPARGASQGGYVRPWWYDYWGQGTQVTVSS | low polyreactivity
19 | QVQLVESGGGLVQAGGSLRLSCAASGSIFPEYAMGWYIQAPGKERELVASISSGGSSTYYADSVKGRFTISRDNAKNTVYLQMNSLKPEDTAVYYCARRRSYKRRFDYWGQGTQVTVSS | low polyreactivity
20 | QVQLQESGGGLVQAGGSLRLSCAASGTISQEDCMGWYRQATGKQREFVAAIGLGSNTNYADSLKGRFTISRDNAKNTVYLLMNSLKPEDTAVYYCAVSVWQYSDHVYRGQGTQVTVSS | low polyreactivity
21 | QVQHVESGGGLVQAGGSLRLSCAASGSIFSVYAMGWYRPEPGKASQLFAGITRGGSTYADSVKGRFTISRDNAKNTVYLQMNSLKPEDTAVYYCAADALIATPSWGKYNYWVQGTQVTVSS | high polyreactivity
22 | QVQLVESGGGLVQAGGSLRLSCAASGRTFGYYGMGWYRQAPGKERELVAAITGSGGSTYYADSVKGRFTISRDNAKNTVYLQMNSLKPEDTAVYYCGATDLSRWTLYDYCGQGTQVTVSS | high polyreactivity
23 | QVQLVESGGGLVQAGGSLRLSCAASGRIFYRNAMGWYRQAPGKERELVAAITGSGGSTYYADSVKGRFTISRDNAKNTVYLQMNSLKPEDTAVYYCNKPYFLYRPLGTGMEYWGQGTHVTVSS | high polyreactivity
24 | QVQLVESWGGLVQAGGSLRLSCAASGRIFYVYDMGWYRQAPGKERELVAAISWSGGSTSYADSVKGRFTISRDKAMYTVYLQMNSLKPEDTAVNYCAATSAIGWGYDYWGQGTQVNVSS | low polyreactivity
25 | QVQLVESGGGLVQAGGSLRLSCAPSGYTFWLYAMGWYRQAPGKERELVAAITWNGGSTYYADSVKGRFTISRDIAKNTVYLQMISLNPEYTAVYYCAAEAIIYLQWFDYWGQGTQVTVSS | low polyreactivity
26 | QVQLVESGGGLVQAGGSLRLSCAASGSIFRRNPMGWYRQAPGKESELVAAISSSGGSTYYADSVKGGFTISRDIAKNTFYLQMNSVKPEDTAVYYCAARFGPQYRFDYWGQGTQVTVSS | high polyreactivity
27 | QVQLVESGGRLVQAGGSLRLSCAASGRIFTWYAMGWYRQAPGKERELVAAISWTGGTTYYADSVKGRFTISRVNAKNTVYLQMNSMKPEDTEVYYCNKVVGFRSNFGGYGYCGQGTQVTVSS | high polyreactivity
28 | QVQLVESGGGLVQAGGSLRLSCAASGSIIATNAMGWYRQAPGKERELVAAISRSAGRTYYADSVKGRFTISRDNAKNTVYLQMNRLKPDDTAVYYCNAVFPGVTNQMDYWGQGTQVTVSS | high polyreactivity
29 | QVQLVESGGGLVQAGGSLRLSCAASGSIFEHNSMGWYSQAPGKERELGAAITISGGGTYYADSVKGRFTISRDNAKNTVYLQMNSLKPEDTAVYYCNRDKPGLVFTSYNYSSSYDYWGPGTQVTVSS | low polyreactivity
30 | QVPLVESGGGLVQAGGSLRLSCAASGSIFTVYAVGWYRQAPGKERELVASIRFSSGRTYYADSVKGRFTISRDNAKNTVYLHMTSLKPEDTAVYYCAAETVSWYRYYYWGQGTQVTVSS | high polyreactivity
